Test results: US8211649B2, “Methods of diagnosing and prognosing hodgkin's lymphoma” (Human Genome Sciences, Inc., priority 2006, dated 2012)
Where two headings read alike, the source gives them in different places. Blank lines part the entries; values can stand above or below the molecule they belong to.

Tests used:
[1] = system: HIV; details: greater activity; cited from earlier work
[2] = system: Neutrokine-alpha expression on monocytes; test: FACS of Neutrokine-alpha cell surface expression with mAb 2E5; format: cell-based, human; details: IFN-gamma 100 U/mL for three days
Method: The expression profile of Neutrokine-alpha was assessed by Northern blot (FIG. 7B) and flow cytometric analyses (Table V and FIGS. 8A, 8B and 8C). Neutrokine-alpha is encoded by a single 2.6 kb mRNA found at high levels in peripheral blood leukocytes, spleen, lymph node and bone marrow. Lower expression levels were detected in placenta, heart, lung, fetal liver, thymus and pancreas. Among a panel of cell lines, Neutrokine-alpha mRNA was detected in HL-60 and […], but not in Raji, HeLa, or MOLT-4 cells. […] A concomitant increase in Neutrokine-alpha-specific mRNA was also detected (FIG. 8C). By contrast, Neutrokine-alpha was not expressed on freshly isolated peripheral blood granulocytes, T cells, B cells, or NK cells.
(§1) FACS analysis. Neutrokine-alpha expression was assessed on human cell lines, freshly isolated normal peripheral blood nucleated cells, and in vitro cultured monocytes, a mouse anti-human Neutrokine-alpha mAb 2E5 (IgG1) followed by PE-conjugated F(ab′)2 goat antibody to mouse IgG (CALTAG Laboratories, Burlingame, Calif.). Cells were analyzed using a FACScan (Becton Dickinson Immunocytometry Systems, San Jose, Calif.) with propidium iodide to exclude dead cells. Neutrokine-alpha binding was assessed using rNeutrokine-alpha biotinylated with a N-hydroxysuccinimidobiotin reagent (Pierce, Rockford, Ill.) followed by PE-conjugated streptavidin (Dako Corp, Glostrup, Denmark).

[3] = system: Neutrokine-alpha expression in monocytes and macrophages; test: cytokine effect on Neutrokine-alpha expression and release in monocytes and macrophages; format: cell-based; details: single cytokine, in vitro
[4] = biological target: T1, Neutrokine-alpha protein (Homo sapiens, UniProt Q9Y275)
Method: A Phase 2, multi-center, randomized, double-blind, placebo-controlled study was performed in subjects with RA. Subjects were randomized into 4 treatment groups (placebo, 1 mg/kg, 4 mg/kg and 10 mg/kg).
An ACR20 response is defined as at least a 20% reduction in tender joint count and swollen joint count, in addition to an improvement of at least 20% on three of five other assessments of symptoms or disease manifestations (i.e., patient pain assessment, patient global assessment, physician global assessment, patient self-assessed disability, acute-phase reactant [ESR or CRP]).

[5] = biological target: T1, Neutrokine-alpha protein; remark: listed apart in the source
Method: 449 subjects with SLE by ACR criteria (Tan et al., Arthritis Rheum. 25:1271-7, (1982); and Hochberg et al., Arthritis Rheum. 40:1725, (1997)) and SELENA SLEDAI score ≧4 at screening were dosed.

[6] = system: human tonsillar B cells; test: B lymphocyte co-stimulatory proliferation assay (3H-thymidine); format: cell-based; details: after biotinylation
Method: Purified recombinant Neutrokine-alpha (“rNeutrokine-alpha”) was assessed for its ability to induce activation, proliferation, differentiation or death in numerous cell based assays involving B cells, T cells, monocytes, NK cells, hematopoietic progenitors, and a variety of cell types of endothelial and epithelial origin. […] A dose-dependent response is readily observed as the amount of crosslinking agent increases in the presence of a fixed concentration of either 1L2 or rNeutrokine-alpha.
B lymphocyte proliferation assay. […] The resulting cell population was routinely greater than 95% B cells as assessed by expression of CD19 and CD20. […] Proliferation was quantitated by a 20 h pulse (1 microCi/well) of ^3H-thymidine (6.7 Ci/mM) beginning 72 h post factor addition.
In Vitro assay—Purified Neutrokine-alpha and/or Neutrokine-alphaSV protein, or truncated forms thereof, is assessed for its ability to induce activation, proliferation, differentiation or inhibition and/or death in B-cell populations and their precursors. […] Novel synergizing agents can be readily identified using this assay. […] The resulting cell population is greater than 95% B cells as assessed by expression of CD45R(B220). […] Proliferation or inhibition is quantitated by a 20 h pulse (1 uCi/well) with ^3H-thymidine (6.7 Ci/mM) beginning 72 h post factor addition. […]

[7] = system: Neutrokine-alpha receptor; test: FACS binding of biotinylated Neutrokine-alpha to blood cells and cell lines; design: species or system human
Source text: In an attempt to correlate the specific biological activity on B cells with receptor expression, purified Neutrokine-alpha was biotinylated. […] In contrast, biotinylated Neutrokine-alpha bound peripheral CD20^+ B cells. Receptor expression was also detected on the B cell tumor lines REH, ARH-77, Raji, Namalwa, RPMI 8226, and IM-9 but not any of the myeloid-derived lines tested including THP-1, HL-60, K-562, and U-937. Similar results were also obtained using a biologically active FLAG-tagged Neutrokine-alpha protein instead of the chemically modified biotin-Neutrokine-alpha. […] It remains to be shown whether cellular activation may induce expression of Neutrokine-alpha receptors on peripheral blood cells, other normal cell types or established cell lines.
as §1

[8] = design: species or system BALB/c mice; details: mouse
Method: Neutrokine-alpha was radiolabeled with ^125I and injected intravenously into BALB/c mice. Three doses and 4 timepoints over a 24-hr period were studied. Biodistribution was measured by direct counting of the radioactivity in dissected whole organs or tissues and by whole body quantitative autoradiography (QAR).

[9] = system: B cells; test: Neutrokine-alpha mediated B cell proliferation, enhancement by cytokines; format: cell-based; details: observed by the inventors
[10] = week 52, all treatment groups combined, reduction

Molecule: Nc1nc(=O)n([C@@H]2CS[C@H](CO)O2)cc1F [COVIRACIL, emtricitabine]
activity in vitro relative to lamivudine (3TC) [1]: 3- to 10 fold

Molecule: CC[C@H]1C(=O)Nc2ccc(F)cc2N1C(=O)OC(C)C [GW-420867X]
activity relative to HBY097 [1]: 25 fold

Molecule: C[C@H](Sc1nc(N)cc(Cl)n1)c1cc2ccoc2cn1 [PNU-142721]
activity relative to delavirdine [1]: 20- to 50 fold

Molecule: IFN-gamma: cytokine
upregulation of Neutrokine-alpha expression on resting monocytes [2]: approximately 4 fold
cell surface expression of Neutrokine-alpha in monocytes and macrophages [3]: enhance

ACR20 response versus placebo ([4]; 1 mg/kg treatment group, 24 weeks (p=0.0097)): statistically superior
ACR20 response ([4]; Week 48, extension period): approximately 40%
ACR20 response versus placebo ([4]; all active treatment groups combined, 24 weeks (p=0.0213)): statistically superior
CD20+ B-cells, naïve B-cells, activated B-cells and RF ([4]; biological activity): statistically significant reductions
decrease of serum IgG ([5]; belimumab-treated arms): 10%
PGA ([5]; by week 16 through week 52, all active vs. placebo): improved
plasma and memory cell populations ([5]; in vivo): preserved
primary efficacy endpoints (percent reduction in SS score at week 24, time to flare over 52 weeks) ([5]; in vivo): did not reach statistical significance
increase of C4 ([5]; low baseline C4, belimumab-treated arms): 33%
anti-dsDNA+ subjects converted to negative ([5]; week 52): 14.5%
SS score ([5]; week 52, ANA+ subjects): significantly reduced
median percent change in CD20+ B cells [5, 10]: 54%
median percent change in plasmacytoid B cells (CD20+/CD138+) [5, 10]: 62%
reduction of anti-dsDNA Ab ([5]; week 52, baseline positive): 30%
median percent change in activated B-cells (CD20+/CD69+ B cells) ([5]; week 52, reduction): 70%
SLE flares ([5]; weeks 24-52 using a 24 week baseline): decreased
Molecule: belimumab: an antibody that neutralizes Neutrokine-alpha protein
safety, including adverse events, AE severity, infections or lab toxicity vs. placebo ([5]; in vivo): No clinically significant differences
severe infusion reaction events ([5]; in vivo): 1
subjects with pleurisy ([5]; in vivo): 3.3%

Molecule: biotinylated Neutrokine-alpha: purified Neutrokine-alpha biotinylated with N-hydroxysuccinimidobiotin reagent
biological function in the standard B cell proliferation assays [6]: retained biological function
receptor expression (binding of biotinylated Neutrokine-alpha) ([7]; B cell tumor lines REH, ARH-77, Raji, Namalwa, RPMI 8226, IM-9): detected
binding of biotinylated Neutrokine-alpha ([7]; T cells, monocytes, NK cells and granulocytes of human peripheral blood): undetectable
receptor expression (binding of biotinylated Neutrokine-alpha) ([7]; myeloid-derived lines THP-1, HL-60, K-562, U-937): not any
binding of biotinylated Neutrokine-alpha ([7]; peripheral CD20+ B cells): bound

Molecule: radiolabeled Neutrokine-alpha: Neutrokine-alpha (amino acids 134-285 of SEQ ID NO:2) radiolabeled with 125I
in vivo targeting specificity [8]: high in vivo targeting specificity for lymphoid tissues
QAR signal in liver and kidney ([8]; in vivo): no longer had observable levels
QAR signal in spleen, lymph nodes and GALT ([8]; in vivo): still strongly positive
concentration of radioactivity in kidney ([8]; in vivo, iv, 0.01 mg/kg, 3 h): ~5 % injected dose (ID)/g
concentration of radioactivity in liver ([8]; in vivo, iv, 0.01 mg/kg, 3 h): ~5 % injected dose (ID)/g
concentration of radioactivity in lymph node ([8]; in vivo, iv, 0.01 mg/kg, 3 h): 23 % injected dose (ID)/g
concentration of radioactivity in spleen ([8]; in vivo, iv, 0.01 mg/kg, 3 h): 63 % injected dose (ID)/g

B1: IL-4: cytokine (protein, UniProt P05112 25-153, looked up)
Interleukin-4: HKCDITLQEIIKTLNSLTEQKTLCTELTVTDIFAASKNTTEKETFCRAATVLRQFYSHHEKDTRCLGATAQQFHRHKQLIRFLKRLDRNLWGLAGLNSCPVKEANQSTLENFLERLKTIMREKYSKCSS
cell surface expression of Neutrokine-alpha in monocytes and macrophages [3]: decreased
effect on Neutrokine-alpha mediated B cell proliferation [9]: enhance

B2: IL-10: cytokine (protein, UniProt P22301 19-178, looked up)
Interleukin-10: SPGQGTQSENSCTHFPGNLPNMLRDLRDAFSRVKTFFQMKDQLDNLLLKESLLEDFKGYLGCQALSEMIQFYLEEVMPQAENQDPDIKAHVNSLGENLKTLRLRLRRCHRFLPCENKSKAVEQVKNAFNKLQEKGIYKAMSEFDIFINYIEAYMTMKIRN
cell surface expression of Neutrokine-alpha in monocytes and macrophages [3]: enhance
effect on Neutrokine-alpha mediated B cell proliferation [9]: enhance
